Assay results taken from patent US20040138113A1, “Use of corticotroph-derived glycoprotein hormone to treat inflammation and potentiate glucocorticoid action” (priority 2002, published 2004).

Experiments:
[1] = biological target: thyroid-stimulating hormone (TSH) receptor (human) (UniProt P16473); test: flow cytometry, human PBMC gated on CD4+ CD45RA- memory CD4+ T cells; CGH-biotin 10 ug/ml then streptavidin-PE; background without CGH-biotin 3.4
[2] = biological target: thyroid-stimulating hormone (TSH) receptor (human) (UniProt P16473); test: flow cytometry, human PBMC gated on CD14+ monocytes; CGH-biotin 10 ug/ml then streptavidin-PE; background without CGH-biotin 9.1
[3] = biological target: thyroid-stimulating hormone (TSH) receptor (human) (UniProt P16473); test: flow cytometry, human PBMC gated on CD4+ CD45RA+ naive CD4+ T cells; CGH-biotin 10 ug/ml then streptavidin-PE; background without CGH-biotin 3.5
[4] = biological target: thyroid-stimulating hormone (TSH) receptor (human) (UniProt P16473); test: flow cytometry, human PBMC gated on CD56+ NK cells; CGH-biotin 10 ug/ml then streptavidin-PE; background without CGH-biotin 3.6
[5] = biological target: thyroid-stimulating hormone (TSH) receptor (human) (UniProt P16473); test: flow cytometry, human PBMC gated on CD3+ T cells; CGH-biotin 10 ug/ml then streptavidin-PE; background without CGH-biotin 4.3
[6] = biological target: thyroid-stimulating hormone (TSH) receptor (human) (UniProt P16473); test: flow cytometry, human PBMC gated on CD19+ B cells; CGH-biotin 10 ug/ml then streptavidin-PE; background without CGH-biotin 3.8
[7] = biological target: thyroid-stimulating hormone (TSH) receptor (human), P16473; test: cell-based or functional assay
[8] = system: LPS-induced mild endotoxemia mouse model; test: LPS-induced mild endotoxemia mouse model, serum cytokines by ELISA; assay type: in vivo, C57B1/6 mice; conditions: for effect on serum IL-6 levels / effect on serum TNFα levels: 2 mg/kg of the monomer, data not shown
Experimental: An in vivo experiment was designed to examine the effect of CGH in a mouse model of LPS-induced mild endotoxemia. This model mimics acute endotoxemia/sepsis by challenging mice with a low, non-lethal dose of bacterial endotoxin (lipopolysaccharide, LPS). Serum is collected at various timepoints (1-8 hours) after intraperitoneal LPS injection and analyzed for altered expression of a wide variety of pro- and anti-inflammatory cytokines and acute phase proteins that mediate the inflammatory response. The model provides a means to assess the potential anti-inflammatory effects of therapeutic candidates during a robust inflammatory response. To initially assess the model, we measured proinflammatory cytokines in a pilot experiment to collect reference data for the model.
C57B1/6 mice (Charles River Laboratories; 5 mice/group) were treated i.p. with PBS, 0.2 mg/kg CGH in PBS, or 2 mg/kg CGH in PBS 1 hour prior to LPS challenge. The mice were then challenged with 25 ug of LPS i.p. and bled at 1 hour and 4 hours after LPS injection. Serum was analyzed for TNFα (1 hour) and IL-6 (4 hours) levels by ELISA.
To determine if CGH would potentiate the effect of a sub-maximal dose of glucocorticoid, groups of 10 C57B1/6 mice each were treated i.p. with PBS, 0.15 or 1.5 mg/kg Dex, 2 mg/kg CGH, or a combination of CGH and low or high doses of Dex, 1 hour prior to injection of 25 ug LPS i.p. As shown in TABLE 3 (Expt #2), either 2 mg/kg CGH or 1.5 mg/kg Dex treatment alone (1 hour prior to LPS) caused a significant drop in serum TNFα levels at 1 hour, as observed in previous experiments. The effects of CGH administered in conjunction with Dex on inhibition of TNFα production were greater than either dose of Dex alone.

[9] = system: neutrophils infiltrating the ears; test: Neutrophil infiltration in ears of DTH mice, anti-Gr-1 immunohistochemistry and histomorphometry; assay type: in vivo, C57B1/6 mice; conditions: anti-Gr-1 staining, DTH experiment #1
Experimental: Ears from mice in DTH experiment #1 were analyzed by immunohistochemistry to assess which cell types were most affected by CGH treatment. Ears were fixed in Zinc/Tris buffer (2.3 mM calcium acetate/31.6 mM zinc acetate/36.7 mM zinc chloride in 0.1M Tris-HCL buffer, pH 7.4) for 24 hours at room temperature and stained with antibodies specific for CD4, CD8, CD11c, and Gr-1 (neutrophils). […] Ears were stained using a TechMate 500 autoimmunostainer (Biotech/Ventana) MIP protocol with some modifications. After drying the slides for 1 hour at 60° C., the sections were stained with a rat anti-mouse Gr-1 mAb (clone 7/4, Serotec, isotype rat IgG2a, used at 1.25 ug/ml final dilution), overnight at 4° C. This step was followed, after a wash, by biotinylated rabbit anti-rat IgG secondary antibody (Dako, used at 10 ug/ml in PBS with 2% normal rabbit serum and 2% nonfat dry milk) for 45 min. The sections were then washed and treated with HP Block (1.5% H2O2 in 50% methanol) 3 times, 7 min each, followed by 25 min in avidin-biotin complex, 3 times of 4 min each in DAB (Diaminobenzidine), then with Methyl green for 10 min.
Histomorphometry was performed to obtain the average pixel density of neutrophils per unit length (1 mm) present in the ear samples. […]

TSHR = biological target: T1, TSHR (Homo sapiens, UniProt P16473); test: Release of free fatty acids (FFA) from adipose cells; assay type: cell-based
T1 construct: In adipose cells, sub-nanomolar levels of CGH stimulate release of free fatty acids (FFA); endogenous in cells

thymus = system: thymus; set-up: species or system C57B1/6 mice; conditions: mouse, in vivo
Text: Since the receptor for CGH, TSH-R, is expressed by the adrenal glands, there was concern that the anti-inflammatory effects observed might be an indirect effect of increasing endogenous corticosteroid production in CGH-treated mice. One well-established side effect of increasing either exogenous or endogenous corticosteroid levels is substantial atrophy of the thymus, as the developing T cells are induced to undergo apoptosis. Therefore, the thymuses of the CGH and Dex-treated mice in the DTH experiments were analyzed. […] Thus, CGH seems to be mediating its anti-inflammatory effects in a manner distinct from that of exgenous glucocorticoids like Dex.

adrenal cortex = test: Adenoviral overexpression of CGH in mice, adrenal gland histopathology; assay type: in vivo, C57BL6 mice; conditions: GPHA2- and GPHB5-expressing adenovirus by tail vein, day 20, all eight mice
Text: Summary: Mice were exposed to CGH through infection with adenovirus particles expressing GPHA2 and GPHB5, leading to overexpression and secretion of CGH from the liver of these animals. […] The hypertrophy was apparent in the inner cortical layers, the zona fasciculata and the zona reticularis. Similarly, mice were exposed to CGH through intraperitoneal injection of recombinant CGH protein alone, recombinant CGH protein along with the glucocorticoid Dexamethasone (Dex), Dex alone, or PBS alone daily for two weeks.
Each group consisted of eight female C57BL6 mice. 7.5×10^11 particles each of GPHA2- and GPHB5-expressing adenovirus were administered by tail vein injection to the experimental group, while 1.5×10^11 particles of adenovirus expressing a parental vector alone were administered to the control group. Animals were sacrificed on day 20 following the injection and tissues were evaluated by a pathologist.

NCI-H295R = test: CRE-luciferase reporter assay of cAMP-mediated gene induction in adrenal cortex cells; assay type: cell-based, human; conditions: purified CGH heterodimer
Text: Summary: A human adrenal cortex cell line, NCI-H295R, was used to study signal transduction of CGH. NCI-H295R was transduced with recombinant adenovirus containing a reporter construct, a firefly luciferase gene under the control of cAMP response element (CRE) enhancer sequences. This assay system detects cAMP-mediated gene induction downstream of activation of Gs-coupled GPCR's (G-protein coupled receptors). […] Typically, CGH elicited a maximal response of 15-40-fold luciferase induction above control media.
NCI-H295R cells were obtained from the ATCC (CRL-2128, Manassas, Va.) and cultured in growth medium as follows: 1:1 mixture of Dulbecco's modified Eagle's medium and Ham's F12 medium with L-glutamine (D-MEM/F-12; GIBCO, cat.# 11320-033) containing 25 mM HEPES buffer (GIBCO, Invitrogen, Carlsbad, Calif., cat.# 15630-080), 1 mM sodium pyruvate (GIBCO, cat.# 11360-070), 1% ITS+1 media supplement (Sigma St. Louis, Mo. cat# 12521) and 2.5% Nu-Serum I (BD Biosciences, Lexington, Ky. cat.#355100). Cells were cultured at 37° C. in a 5% CO2 humidified incubator. […]
Promega's Luciferase Assay System (Promega, Madison, Wis., cat. # E1500) was used to process the treated cells. […] Luciferase activity was measured on a microplate luminometer (PerkinElmer Life Sciences, Inc., model LB 96V2R) following automated injection of luciferase assay substrate.

[10] = biological target: T2, glycoprotein hormone beta 5 (GPHB5) (human, UniProt Q86YW7 25-130, one N-linked glycosylation (site not stated)); test: co-expression in CHO cells (Example 5)
T2 construct: Subunit co-expressed with GPHA2 in CHO cells; also called beta subunit of CGH
T2 sequence: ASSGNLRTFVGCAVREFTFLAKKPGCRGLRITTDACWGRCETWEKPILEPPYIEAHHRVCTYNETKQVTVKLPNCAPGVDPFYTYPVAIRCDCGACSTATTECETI

[11] = 2 mg/kg CGH 1 hour prior to LPS, Expt #1

thyroid-stimulating hormone (TSH) receptor (human), sequence (P16473 21-764): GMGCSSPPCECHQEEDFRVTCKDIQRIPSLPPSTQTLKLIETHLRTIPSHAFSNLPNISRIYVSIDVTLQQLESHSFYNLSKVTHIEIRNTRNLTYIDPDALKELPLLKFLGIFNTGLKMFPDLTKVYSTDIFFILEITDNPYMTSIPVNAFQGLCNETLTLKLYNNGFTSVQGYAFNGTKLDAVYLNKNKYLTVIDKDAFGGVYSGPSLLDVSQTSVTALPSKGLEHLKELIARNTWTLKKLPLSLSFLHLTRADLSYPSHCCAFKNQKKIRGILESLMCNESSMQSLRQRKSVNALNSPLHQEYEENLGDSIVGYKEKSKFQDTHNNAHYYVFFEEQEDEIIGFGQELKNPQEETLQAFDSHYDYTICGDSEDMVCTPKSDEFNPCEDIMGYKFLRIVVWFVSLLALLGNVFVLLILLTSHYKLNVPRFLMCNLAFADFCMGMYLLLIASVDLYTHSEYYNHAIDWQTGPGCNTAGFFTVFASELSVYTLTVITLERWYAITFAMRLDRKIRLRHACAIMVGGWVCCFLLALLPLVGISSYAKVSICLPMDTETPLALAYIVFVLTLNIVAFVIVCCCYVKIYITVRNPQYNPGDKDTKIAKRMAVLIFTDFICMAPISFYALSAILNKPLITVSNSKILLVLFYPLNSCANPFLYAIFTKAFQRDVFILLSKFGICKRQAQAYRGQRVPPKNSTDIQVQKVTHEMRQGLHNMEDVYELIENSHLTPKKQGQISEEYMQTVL
thyroid-stimulating hormone (TSH) receptor (human), P16473, sequence (P16473 21-764): as above
T1 sequence (P16473 21-764, species assumed): as the sequence (P16473 21-764) above

CGH-biotin (biotinylated corticotroph-derived glycoprotein hormone) (from UniProt Q96T91 24-129; Q86YW7 25-130) (ligand)
FL-2 MFI [1]: 8.7 MFI
FL-2 MFI [2]: 56.4 MFI
FL-2 MFI [3]: 4.9 MFI
FL-2 MFI [4]: 11.9 MFI
FL-2 MFI [5]: 9.1 MFI
FL-2 MFI [6]: 12.9 MFI

B1: Corticotroph-derived glycoprotein hormone (CGH), purified recombinant heterodimer, Q96T91 24-129; Q86YW7 25-130 (ligand)
chain 1: QEAVIPGCHLHPFNVTVRSDRQGTCQGSHVAQACVGHCESSAFPSRYSVLVASGYRHNITSVSQCCTISGLKKVKVQLQCVGSRREELEIFTARACQCDMCRLSRY
chain 2: T2 sequence
modifications: here or on the partner: one N-linked glycosylation on the GPHB5 subunit (site not stated); two N-linked glycosylations on the GPHA2 subunit (sites not given)
CRE-driven luciferase reporter induction (cAMP-mediated) in NCI-H295R human adrenal cortex cells [7]: 15 to 40 fold

B2: zsig51: alpha subunit of CGH, glycoprotein hormone alpha2, previously called Zsig51; tested as monomer (protein)
chain: B1 chain 1
effect on serum IL-6 levels [8]: neither of these monomers had any effect
effect on serum TNFα levels [8]: neither of these monomers had any effect

B3: CGH: heterodimeric protein hormone of alpha subunit GPHA2 (SEQ ID NO:3) and beta subunit GPHB5 (SEQ ID NO:6) (protein, listed as Homo sapiens)
alpha: B1 chain 1
beta: T2 sequence
number of neutrophils infiltrating the ears compared to the PBS-treated controls [9]: clear reduction
levels that stimulate release of free fatty acids (FFA) (TSHR): sub-nanomolar
molar concentration stimulating release of FFA, lower compared to TSH (TSHR; compared to TSH): 10 fold
relative proportion of each thymocyte subset compared with the PBS-treated group (thymus): not significantly different
increase of serum IL-6 levels at the 4 hour time point [8, 11]: about 70%
reduction of the TNFα induction at the 1 hour time point [8, 11]: about 60%
histomorphological changes of the inner adrenal cortical cells (adrenal cortex): profound hypertrophy and uniformly finely, foamy vacuolization
dose-dependent induction of luciferase activity compared with 10 μM forskolin (NCI-H295R): equal to or higher than that induced by 10 μM forskolin

B4: glycoprotein hormone alpha2 (GPHA2) (ligand)
chain: B1 chain 1
modifications: two N-linked glycosylations (sites not given)
notes: Subunit co-expressed with GPHB5 in CHO cells; also called Zsig51; zsig51
binding result [10]: binds

B5: zlut1: monomer of CGH tested alone; not defined further, presumably the GPHB5 beta subunit (protein, UniProt Q86YW7 25-130, looked up)
Glycoprotein hormone beta-5: T2 sequence
effect on serum IL-6 levels [8]: neither of these monomers had any effect
effect on serum TNFα levels [8]: neither of these monomers had any effect
